The results in this text go back to article PMC13067816, “Alphaviral Capsid Proteins Inhibit Stress Granule Assembly via Competitive RNA Binding With G3BP1”.

This data set deals with SFV capsid (nucleocapsid N) (Semliki Forest virus (SFV4, …, UniProt P03315 1-267)). In words: fluorescence polarization; 20 nM probe, 0-8000 nM protein; FP: 50 mM Tris-HCl pH 7.4, 150 mM NaCl, 20 nM FAM-RNA, 15 min, room temperature. (In general: Fluorescence polarisation rises when a labelled molecule tumbles more slowly, as on binding a larger partner.)
Take UUUGUCAAGCUCAUUUCCUGGUAUGACAAC (ssRNA) [FAM-GAPDH probe]: the binding result was “binds”.
Regarding GCGUCGUGUGAGCCCCCGAAAGACCACAUA (ssRNA) [FAM-SFV gRNA probe2], the binding result is listed as “binds”.
For AUGCAAAGGGCUUGGACUUGGGUGGCAGAG (ssRNA) [FAM-AHNAK probe] the value was “binds”; for GGUUGACGGGUCGGAUAGUUGCUU (ssRNA) [FAM-SFV gRNA probe1], “binds”.
